Experiments:
[1] = biological target: Atlas GC ectodomain fusion loop mutant F136A/F137A (Ancylostoma ceylanicum)
[2] = biological target: Atlas GC ectodomain GPL binding pocket mutant R86A (Ancylostoma ceylanicum)
[3] = biological target: the molecule itself; assay: SEC-MALS; Superdex 200 (10/300), 293 K, 20 mM tris pH 7.8, 0.15 M NaCl, 5% glycerol, 0.5 mM TCEP; 100 ul at 1.6 to 2.5 mg/ml; self-association (trimer)

Atlas GC ectodomain fusion loop mutant F136A/F137A (domain or fragment)
stoichiometry N [1]: 3

Atlas GC ectodomain GPL binding pocket mutant R86A (domain or fragment)
stoichiometry N [2]: 3

B1: Atlas GC ectodomain (soluble ectodomain fragment of the phlebovirus GC-like Env of Ancylostoma ceylanicum Atlas virus, polyprotein residues 2330 to 2772) (domain or fragment, UniProt A0A016UZK2 2330-2772, looked up)
chain: CSEVISVTSTEEVCTIQENKETCTFNHATTITLQPLQQQTCLTLNDPEKRPMGMLTVKPDGIKFRCNKKIEFFTRDHQIVSESVHRCHRAGSCHSDECHHVKDTDALPEFSSEANSRPGYTSCSSSCGCITCDGCFFCEPSCLFHRLYAIPTTPTIYSIFYCPSWELEVDAEISLQREDETTTSTIRLLPGRTSTWNNIRFSLIGTIVPQLPILSSAFVTNGRQTSIVKPAYAGQLQSNSVGQLQCPNLEAAKQFECHFSRNLCTCTNALHKVSCTCYDGSVEDHMEALPLPQTSKNFLVFEKDRNIYAKTHVGSALQLHIVAQDLKITTVKHTSHCQVEASDLSGCYSCTSGASLTLSCKSDNGEVLANMKCNEQTHVIRCTESGFINNILLMFDTSEVAADCTAACPGGIVNFTIKGLLAFVNERIISQSYSATDVERNIK
notes: The C-terminal V5 and histidine tags were optionally cleaved with carboxypeptidase A; The atomic model covers residues 2330 to 2769; also called GC trimer; WT
stoichiometry N [3]: 3

— PMC9094657, “A bioactive phlebovirus-like envelope protein in a hookworm endogenous virus” (Science Advances, 2022)
